Reference: patent US20210145976A1 (ARO BIOTHERAPEUTICS, published 2021)
Positions count from the first letter of the chain named.

B1: SEQ ID NO 100 (designed binder)
chain: MLPAPKNLVVSRVTEDSARLSWTAPDAAFDSFWIEYWEVVGFGEAIVLTVPGSERSYDLTGLKPGTEYWVGIYGVKGGNPSVPLSAIFTT
notes: FN3 domain
B2: SEQ ID NO 103 (designed binder)
chain: B1 chain with P3L, W33A, W37F, V39Y, V40T, F42E, W69Y, N79Y, P80L, V82R
notes: FN3 domain
B3: SEQ ID NO 87 (designed binder)
chain: MLPAPKNLVVSRVTEDSARLSWTAPDAAFDSFAIEYYEPVPAGEAIYLDVPGSERSYDLTGLKPGTEYDVTIYGVKGGYYSHPLFASFTT
notes: FN3 domain
B4: SEQ ID NO 97 (designed binder)
chain: MLPAPKNLVVSRVTEDSARLSWTAPDAAFDSFFISYFEGWASGEAIHLYVPGSERSYDLTGLKPGTEYSVHIQGVKGGQPSTPLSAIFTT
notes: FN3 domain
B5: SEQ ID NO 91 (designed binder)
chain: MLPAPKNLVVSRVTEDSARLSWTAPDAAFDSFVIEYWERTQPGEAIVLTVPGSERSYDLTGLKPGTEYDVWISGVKGGKWSEPLSAIFTT
notes: FN3 domain
B6: SEQ ID NO 102 (designed binder)
chain: MLPAPKNLVVSRVTEDSARLSWTAPDAAFDSFSIDYDEPQPVGEAIVLTVPGSERSYDLTGLKPGTEYRVDIWGVKGGPTSGPLRATFTT
notes: FN3 domain
B7: SEQ ID NO 213 (designed binder)
chain: B6 chain with S33W, D35Y, D37W, P39I, Q40E, P41R, V42A, V47R, T49D
notes: FN3 domain
B8: SEQ ID NO 94 (designed binder)
chain: MLPAPKNLVVSRITEDSARLSWTAPDAAFDSFGIYYYEWWSTGEAIVLTVPGSERSYDLTGPKPGTEYYVKISGVKGGYRSYPLSAIFTT
notes: FN3 domain
B9: SEQ ID NO 89 (designed binder)
chain: MLPAPKNLVVSRVTEDSARLSWTAPDAAFDSFHISYEETPVVGEAIYLRVPGSERSYDLTGLKPGTEYTVAIHGVKGGRESTPLIAPFTT
notes: FN3 domain
B10: SEQ ID NO 265 (designed binder)
chain: MLPAPKNLVVSRVTEDSARLSWTAPDAAFDSFWIYYIETSHQGEAIVLTVPGSERSYDLTGLKPGTEYFVLIKGVKGGYDSVPLSAIFTT
notes: FN3 domain
B11: SEQ ID NO 288 (designed binder)
chain: MLPAPKNLVVSRVTEDSARLSWTAPDAAFDSFLIPYAETSPSGEAIVLTVPGSERSYDLTGLKPGTEYSVLIHGVKGGDYSSPLSAISTT
notes: FN3 domain
B12: SEQ ID NO 272 (designed binder)
chain: B11 chain with L33G, T39S, S40T, S42T, D79H, Y80L, S82D, S88F
notes: FN3 domain
B13: SEQ ID NO 279 (designed binder)
chain: B1 chain with W33S, W37Y, V39S, F42L, W69D, G71S, N79Y, P80L, V82R
notes: FN3 domain
B14: SEQ ID NO 268 (designed binder)
chain: MLPAPKNLVVSRVTEDSARLSWTAPDAAFDSFTIVYGEAGAFGEAIVLTVPGSERSYDLTGLKPGTEYDVLIEGVKGGNLSWPLSAIFTT
notes: FN3 domain
B15: SEQ ID NO 305 (designed binder)
chain: MLPAPKNLVVSRVTEDSARLSWTAPDAAFDSFEIDYDEPFVYGEAIVLTVPGSERSYDLTGLKPGTEYRVFIFGVKGGNGSWPLSAIFTT
notes: FN3 domain
B16: SEQ ID NO 295 (designed binder)
chain: MLPAPKNLVVSRVTEDSARLSWTAPDAAFDSFFIGYLEPIPSGEAIVLTVPGSERSYDLTGLKPGTEYPVVIQGVKGGHPSQPLSAIFTT
notes: FN3 domain
B17: SEQ ID NO 267 (designed binder)
chain: B14 chain with T33P, G37S, A39I, G40H, A41V, F42I, L71W, N79H, W82E
notes: FN3 domain
B18: SEQ ID NO 300 (designed binder)
chain: B16 chain with I40Q, S42P, P69N, V71T, Q73H, H79T, Q82M
notes: FN3 domain
B19: SEQ ID NO 293 (designed binder)
chain: B5 chain with V33T, R39F, Q41G, P42S, W71S, S73Y, K79W, W80L, E82Y
notes: FN3 domain
B20: SEQ ID NO 306 (designed binder)
chain: B1 chain with W33Y, W37F, V39T, V40Q, F42Y, W69Y, G71A, N79Y, P80L, V82R
notes: FN3 domain
B21: SEQ ID NO 285 (designed binder)
chain: B11 chain with S88F
notes: FN3 domain
B22: SEQ ID NO 289 (designed binder)
chain: MLPAPKNLVVSRVTEDSARLSWTAPDAAFDSFAIPYYEDTNDGEAIVLTVPGSERSYDLTGLKPGTEYWVSIQGVKGGTVSGPLSAIFTT
notes: FN3 domain
B23: SEQ ID NO 271 (designed binder)
chain: B11 chain with L33Y, S40R, P41D, S42D, Y80L, S88F
notes: FN3 domain
B24: SEQ ID NO 298 (designed binder)
chain: B11 chain with L33P, P35A, T39P, S40R, S42D, D79L, Y80L
notes: FN3 domain
B25: SEQ ID NO 287 (designed binder)
chain: MLPAPKNLVVSRVTEDSARLSWTAPDAAFDSFTIEYHESGPVGEAIVLTVPGSERSYDLTGLKPGTEYMVWIFGVKGGFVSRPLSAIFTT
notes: FN3 domain
B26: SEQ ID NO 282 (designed binder)
chain: B16 chain with F33A, G35V, L37H, I40R, S42D, P69E, Q73L, H79V, P80H, Q82Y
notes: FN3 domain
B27: SEQ ID NO 304 (designed binder)
chain: B1 chain with W33I, E35T, V39H, F42D, W69F, G71E, N79Y, P80L, V82K
notes: FN3 domain
B28: SEQ ID NO 275 (designed binder)
chain: B11 chain with P35A, T39V, S40T, P41L, S42H, D79R, Y80N, S82D, S88F
notes: FN3 domain
B29: SEQ ID NO 276 (designed binder)
chain: MLPAPKNLVVSRVTEDSARLSWTAPDAAFDSFRIDYLELTSLGEAIVLTVPGSERSYDLTGLKPGTEYPVPILGVKGGLSSWPLSAIFTT
notes: FN3 domain
B30: SEQ ID NO 283 (designed binder)
chain: B11 chain with L33P, P35A, T39P, S40R, S42D, D79L, Y80L, S88F
notes: FN3 domain
B31: SEQ ID NO 81 (designed binder)
chain: MLPAPKNLVVSRVTEDSARLSWTAPDAAFDSFVIEYREGAWYGEAIVLTVPGSERSYDLTGLKPGTEYAVYIPGVKGGPRSFPLSAIFTT
notes: FN3 domain
B32: SEQ ID NO 106 (designed binder)
chain: MLPAPKNLVVSRVTEDSARLSWTAPDAAFDSFTIAYEEHGLVGEAIYLRVPGSERSYDLTGLKPGTEYHVGIMGVKGGVFSSPLSAIFTT
notes: FN3 domain
B33: SEQ ID NO 109 (designed binder)
chain: B32 chain with T33H, H39L, G40V, L41T, V42E, H69L, G71D, M73E, V79H, F80L
notes: FN3 domain
B34: SEQ ID NO 162 (designed binder)
chain: MLPAPKNLVVSRVTEDSARLSWTAPDAAFDSFHIAYEEATTYGEAIFLRVPGSERSYDLTGLKPGTEYDVWIEGVKGGTISGPLSAIFTT
notes: FN3 domain
B35: SEQ ID NO 220 (designed binder)
chain: MLPAPKNLVVSRVTEDSARLSWTAPDAAFDSFHIIYEEDGTEGEAIYLRVPGSERSYDLTGLKPGTEYEVDIEGVKGGVLSWPLFAEFTT
notes: FN3 domain
B36: SEQ ID NO 84 (designed binder)
chain: MLPAPKNLVVSRVTEDSARLSWTAPDAAFDSFPIYYWEVFPAGEAIELDVPGSERSYDLTGLKPGTEYFVRIEGVKGGASSYPLRAEFTT
notes: FN3 domain
B37: SEQ ID NO 99 (designed binder)
chain: MLPAPKNLVVSRVTEDSARLSWTAPDAAFDSFGIQYNEFVFRGEAIVLTVPGSERSYDLTGLKPGTEYFVPISGVKGGDDSRPLSAIFTT
notes: FN3 domain
B38: SEQ ID NO 107 (designed binder)
chain: B37 chain with G33F, N37T, F39S, V40H, F41W, R42V, F69A, S73E, D80S, R82T
notes: FN3 domain

target: T1, recombinant biotinylated CD71 extracellular domain (Sino Biologics) with an N-terminal 6His tag (human, UniProt P02786 89-760, biotinylated (sites not given)); experiment: screening ELISA
T1 construct: extracellular domain; also called hCD71; huCD71
T1 sequence (P02786 other isoform, or with tags, fused parts or gaps): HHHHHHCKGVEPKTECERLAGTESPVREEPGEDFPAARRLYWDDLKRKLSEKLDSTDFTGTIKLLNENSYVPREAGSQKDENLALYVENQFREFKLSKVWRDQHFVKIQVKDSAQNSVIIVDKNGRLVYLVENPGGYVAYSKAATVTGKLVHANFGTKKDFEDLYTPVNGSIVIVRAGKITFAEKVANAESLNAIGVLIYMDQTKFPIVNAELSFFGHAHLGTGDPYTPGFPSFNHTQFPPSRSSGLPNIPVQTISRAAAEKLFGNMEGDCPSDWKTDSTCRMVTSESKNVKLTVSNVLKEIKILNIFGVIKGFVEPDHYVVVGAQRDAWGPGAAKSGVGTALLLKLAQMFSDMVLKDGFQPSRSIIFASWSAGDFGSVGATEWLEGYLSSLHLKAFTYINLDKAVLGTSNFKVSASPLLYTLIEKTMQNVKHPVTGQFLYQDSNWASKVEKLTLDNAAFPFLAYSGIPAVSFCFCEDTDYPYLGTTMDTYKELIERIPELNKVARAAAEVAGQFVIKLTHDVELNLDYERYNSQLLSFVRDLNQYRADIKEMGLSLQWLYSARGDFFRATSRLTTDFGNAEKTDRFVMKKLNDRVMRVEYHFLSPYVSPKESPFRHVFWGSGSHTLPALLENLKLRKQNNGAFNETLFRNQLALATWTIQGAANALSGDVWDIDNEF

| hCD71 | Binder |
| --- | --- |
| 2.95e+06 | B1 |
| 4.83e+06 | B2 |
| 2.83e+06 | B3 |
| 2.41e+06 | B4 |
| 1.44e+06 | B5 |
| 3.48e+06 | B6 |
| 2.11e+06 | B7 |
| 439000 | B8 |
| 3.44e+06 | B9 |
| 3.61e+06 | B10 |
| 659000 | B11 |
| 1.78e+06 | B12 |
| 4.09e+06 | B13 |
| 1.6e+06 | B14 |
| 1.21e+06 | B15 |
| 3.38e+06 | B16 |
| 1.97e+06 | B17 |
| 2.31e+06 | B18 |
| 3.59e+06 | B19 |

| hCD71 | Binder |
| --- | --- |
| 4.07e+06 | B20 |
| 2.44e+06 | B21 |
| 2.27e+06 | B22 |
| 2.11e+06 | B23 |
| 2.51e+06 | B24 |
| 3.88e+06 | B25 |
| 3.85e+06 | B26 |
| 3.34e+06 | B27 |
| 2.25e+06 | B28 |
| 720000 | B29 |
| 2.95e+06 | B30 |
| 537000 | B31 |
| 594000 | B32 |
| 4.83e+06 | B33 |
| 3.88e+06 | B34 |
| 4.25e+06 | B35 |
| 1.73e+06 | B36 |
| 853000 | B37 |
| 420000 | B38 |

target: T1, recombinant biotinylated CD71 …; experiment: screening ELISA, ratio

| hCD71:HSA | Binder |
| --- | --- |
| 1260 | B1 |
| 4020 | B2 |
| 2580 | B3 |
| 1090 | B4 |
| 800 | B5 |
| 258 | B6 |
| 215 | B7 |
| 44 | B8 |
| 1720 | B9 |
| 913 | B10 |
| 16 | B11 |
| 199 | B12 |
| 1300 | B13 |
| 626 | B14 |
| 48 | B15 |
| 891 | B16 |
| 166 | B17 |
| 571 | B18 |
| 520 | B19 |

| hCD71:HSA | Binder |
| --- | --- |
| 1810 | B20 |
| 1110 | B21 |
| 1060 | B22 |
| 693 | B23 |
| 74 | B24 |
| 706 | B25 |
| 206 | B26 |
| 1240 | B27 |
| 591 | B28 |
| 58 | B29 |
| 472 | B30 |
| 19 | B31 |
| 495 | B32 |
| 3860 | B33 |
| 2100 | B34 |
| 452 | B35 |
| 449 | B36 |
| 105 | B37 |
| 104 | B38 |
